According to patent US20250002945, “NEW TALE PROTEIN SCAFFOLDS WITH IMPROVED ON-TARGET/OFF-TARGET ACTIVITY RATIOS” (CELLECTIS SA, published 2025):

Assays:
Details in all cases: tags: SV40 NLS; FokI fusion
[1] = molecular target: T1, GADPH (2) right V2 TALEN (synthetic, UniProt Q56830 SEQ:15-719); assay: cell_activity; T cells, mostly above 70%
T1 chain: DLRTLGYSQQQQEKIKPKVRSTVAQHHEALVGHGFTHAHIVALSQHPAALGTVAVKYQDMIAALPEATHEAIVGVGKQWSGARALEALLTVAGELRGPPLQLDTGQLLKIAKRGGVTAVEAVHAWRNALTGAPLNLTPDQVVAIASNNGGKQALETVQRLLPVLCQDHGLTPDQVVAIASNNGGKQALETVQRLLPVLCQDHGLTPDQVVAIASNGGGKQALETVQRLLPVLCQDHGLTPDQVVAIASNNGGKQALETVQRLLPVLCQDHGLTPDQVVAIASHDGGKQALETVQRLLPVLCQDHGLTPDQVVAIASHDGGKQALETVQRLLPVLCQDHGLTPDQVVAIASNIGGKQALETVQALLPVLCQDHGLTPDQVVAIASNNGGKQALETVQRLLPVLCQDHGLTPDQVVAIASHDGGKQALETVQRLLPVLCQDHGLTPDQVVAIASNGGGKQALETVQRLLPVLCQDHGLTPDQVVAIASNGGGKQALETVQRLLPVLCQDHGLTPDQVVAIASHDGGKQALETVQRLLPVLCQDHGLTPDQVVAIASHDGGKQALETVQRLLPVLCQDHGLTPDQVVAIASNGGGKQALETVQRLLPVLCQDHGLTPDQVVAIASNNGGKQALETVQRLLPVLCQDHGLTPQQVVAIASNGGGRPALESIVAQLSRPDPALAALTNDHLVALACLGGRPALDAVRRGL

[2] = molecular target: T2, IgH (2) left V2 TALEN (synthetic, UniProt Q56830 SEQ:15-719); assay: cell_activity; T cells, mostly above 70%
T2 chain: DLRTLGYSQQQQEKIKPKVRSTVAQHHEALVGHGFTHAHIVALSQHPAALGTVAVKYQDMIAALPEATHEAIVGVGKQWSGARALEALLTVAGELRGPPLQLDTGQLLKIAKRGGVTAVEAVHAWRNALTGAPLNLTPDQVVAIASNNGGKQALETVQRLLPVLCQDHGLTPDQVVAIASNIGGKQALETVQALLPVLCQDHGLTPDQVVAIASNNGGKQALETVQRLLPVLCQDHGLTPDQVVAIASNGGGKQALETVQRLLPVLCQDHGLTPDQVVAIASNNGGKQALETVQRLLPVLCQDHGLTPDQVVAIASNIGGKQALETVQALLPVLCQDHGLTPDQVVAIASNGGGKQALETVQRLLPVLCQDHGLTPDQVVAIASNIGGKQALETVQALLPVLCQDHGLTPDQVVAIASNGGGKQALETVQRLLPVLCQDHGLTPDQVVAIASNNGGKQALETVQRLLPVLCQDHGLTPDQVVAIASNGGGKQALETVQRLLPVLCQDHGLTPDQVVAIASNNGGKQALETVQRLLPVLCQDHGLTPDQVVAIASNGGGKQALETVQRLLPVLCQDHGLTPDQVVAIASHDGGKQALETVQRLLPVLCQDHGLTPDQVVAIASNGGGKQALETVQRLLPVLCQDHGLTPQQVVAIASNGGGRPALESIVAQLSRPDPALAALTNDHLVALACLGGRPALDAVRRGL

[3] = molecular target: T3, GADPH (2) left V2 TALEN (synthetic, UniProt Q56830 SEQ:15-719); assay: cell_activity; T cells, mostly above 70%
T3 chain: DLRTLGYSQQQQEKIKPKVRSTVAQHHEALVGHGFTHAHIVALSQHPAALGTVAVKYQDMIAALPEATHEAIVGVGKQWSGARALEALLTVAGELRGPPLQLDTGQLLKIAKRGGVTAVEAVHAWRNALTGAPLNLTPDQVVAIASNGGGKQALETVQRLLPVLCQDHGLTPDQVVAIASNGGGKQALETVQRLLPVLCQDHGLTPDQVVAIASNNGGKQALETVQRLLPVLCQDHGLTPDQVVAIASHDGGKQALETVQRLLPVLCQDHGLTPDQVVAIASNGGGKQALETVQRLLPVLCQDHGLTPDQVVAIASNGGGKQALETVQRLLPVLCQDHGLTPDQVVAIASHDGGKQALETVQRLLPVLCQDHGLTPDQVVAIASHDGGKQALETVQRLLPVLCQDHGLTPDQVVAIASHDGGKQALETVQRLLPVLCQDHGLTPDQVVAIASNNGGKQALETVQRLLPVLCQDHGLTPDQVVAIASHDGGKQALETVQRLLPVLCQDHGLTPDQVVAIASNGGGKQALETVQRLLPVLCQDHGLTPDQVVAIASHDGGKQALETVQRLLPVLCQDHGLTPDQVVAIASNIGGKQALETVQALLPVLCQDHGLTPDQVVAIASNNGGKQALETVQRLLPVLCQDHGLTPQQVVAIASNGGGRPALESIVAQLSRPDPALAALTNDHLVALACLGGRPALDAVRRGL

[4] = molecular target: T4, GADPH (1) right V2 TALEN (synthetic, UniProt Q56830 SEQ:15-719); assay: cell_activity; T cells, mostly above 70%
T4 chain: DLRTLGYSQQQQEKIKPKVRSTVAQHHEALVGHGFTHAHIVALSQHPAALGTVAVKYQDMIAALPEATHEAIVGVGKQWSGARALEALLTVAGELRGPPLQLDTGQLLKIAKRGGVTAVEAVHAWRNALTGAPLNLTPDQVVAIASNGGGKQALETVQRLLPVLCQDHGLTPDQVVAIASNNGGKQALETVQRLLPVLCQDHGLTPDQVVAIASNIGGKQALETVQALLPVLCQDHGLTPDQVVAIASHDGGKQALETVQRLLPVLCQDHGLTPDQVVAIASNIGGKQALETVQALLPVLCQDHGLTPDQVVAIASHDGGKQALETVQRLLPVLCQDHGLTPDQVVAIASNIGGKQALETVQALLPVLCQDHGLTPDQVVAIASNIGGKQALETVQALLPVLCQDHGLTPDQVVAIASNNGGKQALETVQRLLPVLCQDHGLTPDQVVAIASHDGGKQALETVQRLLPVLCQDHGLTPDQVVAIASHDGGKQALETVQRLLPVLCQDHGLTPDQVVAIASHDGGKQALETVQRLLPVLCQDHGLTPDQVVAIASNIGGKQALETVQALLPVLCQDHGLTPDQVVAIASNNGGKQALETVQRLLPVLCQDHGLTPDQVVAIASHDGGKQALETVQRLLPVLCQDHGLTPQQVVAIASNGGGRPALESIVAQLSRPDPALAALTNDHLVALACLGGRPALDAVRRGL

[5] = molecular target: T5, IgH (2) right V2 TALEN (synthetic, UniProt Q56830 SEQ:15-719); assay: cell_activity; T cells, mostly above 70%
T5 chain: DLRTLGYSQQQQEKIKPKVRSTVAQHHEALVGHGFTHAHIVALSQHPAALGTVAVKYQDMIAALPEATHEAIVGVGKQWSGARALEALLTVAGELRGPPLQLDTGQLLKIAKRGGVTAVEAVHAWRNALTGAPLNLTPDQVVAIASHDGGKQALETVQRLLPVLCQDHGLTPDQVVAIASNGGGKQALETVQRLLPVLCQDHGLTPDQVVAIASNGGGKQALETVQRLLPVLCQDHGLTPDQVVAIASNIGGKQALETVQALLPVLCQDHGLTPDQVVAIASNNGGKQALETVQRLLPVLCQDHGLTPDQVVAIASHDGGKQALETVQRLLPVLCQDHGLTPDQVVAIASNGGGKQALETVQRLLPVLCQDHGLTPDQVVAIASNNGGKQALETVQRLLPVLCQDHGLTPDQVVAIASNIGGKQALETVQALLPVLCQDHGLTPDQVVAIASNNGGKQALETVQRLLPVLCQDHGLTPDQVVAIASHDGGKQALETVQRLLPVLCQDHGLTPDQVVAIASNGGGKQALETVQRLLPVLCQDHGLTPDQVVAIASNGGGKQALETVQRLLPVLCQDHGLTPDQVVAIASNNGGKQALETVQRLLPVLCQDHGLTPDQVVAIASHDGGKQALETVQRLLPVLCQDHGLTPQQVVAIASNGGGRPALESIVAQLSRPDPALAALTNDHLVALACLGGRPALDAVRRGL

[6] = molecular target: T6, GADPH (1) left V2 TALEN (synthetic, UniProt Q56830 SEQ:15-719); assay: cell_activity; T cells, mostly above 70%
T6 chain: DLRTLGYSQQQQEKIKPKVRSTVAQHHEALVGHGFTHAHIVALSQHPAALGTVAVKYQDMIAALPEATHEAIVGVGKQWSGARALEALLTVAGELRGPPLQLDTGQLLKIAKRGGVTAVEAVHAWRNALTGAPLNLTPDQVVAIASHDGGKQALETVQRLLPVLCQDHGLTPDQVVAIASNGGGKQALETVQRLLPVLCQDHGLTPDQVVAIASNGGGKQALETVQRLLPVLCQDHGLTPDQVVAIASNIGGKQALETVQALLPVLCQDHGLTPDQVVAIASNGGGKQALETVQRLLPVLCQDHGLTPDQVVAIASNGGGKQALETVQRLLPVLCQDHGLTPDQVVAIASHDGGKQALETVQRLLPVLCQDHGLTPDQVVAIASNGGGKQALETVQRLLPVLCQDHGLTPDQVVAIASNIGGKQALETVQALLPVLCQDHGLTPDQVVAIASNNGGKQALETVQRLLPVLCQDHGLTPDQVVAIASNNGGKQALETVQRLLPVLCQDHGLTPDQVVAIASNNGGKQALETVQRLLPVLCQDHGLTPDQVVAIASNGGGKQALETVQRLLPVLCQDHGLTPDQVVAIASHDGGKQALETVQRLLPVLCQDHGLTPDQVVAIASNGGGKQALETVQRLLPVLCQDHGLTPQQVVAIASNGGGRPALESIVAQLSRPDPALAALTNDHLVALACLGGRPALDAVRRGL

[7] = molecular target: CS1 TALEN left V0 FokI G91A (synthetic, UniProt Q56830, G91A (FokI domain, SEQ ID NO:109 numbering)); assay: cell_activity; paired with V0 monomer
[8] = molecular target: CS1 TALEN left V0 FokI D84A (synthetic, UniProt Q56830, D84A (FokI domain, SEQ ID NO:109 numbering)); assay: cell_activity; paired with V0 monomer
[9] = molecular target: CS1 TALEN left V0 FokI Y88A (synthetic, UniProt Q56830, Y88A (FokI domain, SEQ ID NO:109 numbering)); assay: cell_activity; paired with V0 monomer

B1: GADPH (2) right half-site (dsDNA)
DNA 1: ACAGGAAGCTGGCACCA
DNA 2: TGGTGCCAGCTTCCTGT
[1]
  activity: > 50 % indels

B2: IgH (2) left half-site (dsDNA)
DNA 1: TGAGTGATATGTGTCTG
DNA 2: CAGACACATATCACTCA
[2]
  activity: > 50 % indels

B3: GADPH (2) left half-site (dsDNA)
DNA 1: TTTGCTTCCCGCTCAGA
DNA 2: TCTGAGCGGGAAGCAAA
[3]
  activity: > 50 % indels

B4: GADPH (1) right half-site (dsDNA)
DNA 1: AGCTGGGCTTGTGTCAA
DNA 2: TTGACACAAGCCCAGCT
[4]
  activity: > 50 % indels

B5: IgH (2) right half-site (dsDNA)
DNA 1: AGCAAGCTCAGCTAAGA
DNA 2: TCTTAGCTGAGCTTGCT
[5]
  activity: > 50 % indels

B6: GADPH (1) left half-site (dsDNA)
DNA 1: TCTTATTCTAGGGTCTG
DNA 2: CAGACCCTAGAATAAGA
[6]
  activity: > 50 % indels

B7: CS1 left half-site (dsDNA)
DNA 1: TTCCAGAGAGCAATATG
DNA 2: CATATTGCTCTCTGGAA
[7]
  binding signal: > 100 % of WT FokI
[8]
  binding signal: > 100 % of WT FokI
[9]
  binding signal: > 100 % of WT FokI
